Paper PMC8782923, “A Klotho-derived peptide protects against kidney fibrosis by targeting TGF-β signaling” (Nature Communications, 2022)
Values belong to the binder of their own block, whether it stands above or below them. Ends that are not written are not given here.

What was measured:
Settings in all cases: both partners purified
[1] = target: T1, Human TβR2 (10358-H08B; Sino Biological Inc.) (human, UniProt P37173 23-166); test: microplate-based fluorescence direct binding assay; TβR2 (10 μg/ml) or BSA coated on a 96-well microplate; FITC-peptide at 50 μg/ml, 1 h at room temperature, washed four times, fluorescence read
T1 construct: TGF-β receptor 2, human; source: bought: Sino Biological Inc

[2] = target: T2, Recombinant TGF-β receptor 2 protein (UniProt P37173 23-166); test: SPR; Biacore T200, 25 °C; TβR2 amine-coupled on a CM5 chip (50 µg/ml in 10 mM acetate pH 4.0); peptides in PBS injected at 60 µl/min, 180 s association, 540 s dissociation; 1:1 binding model
T2 construct: TGF-β receptor 2, recombinant, 43.4 kDa, >95% by SDS-PAGE; By its catalogue number probably a human extracellular domain with a carrier tag, biotinylated (surmise); The TβR2 of the microplate assay (10358-H08B) is called human; also called TβR2; type 2 TGF-β receptor; source: bought: Sino Biological Inc. (10358-H03H-B)

[3] = target: T3, Recombinant TGF-β receptor 2 protein (10358-H03H-B; Sino Biological Inc.) (UniProt P37173 23-166); test: SPR; Biacore T200, 25 °C; TβR2 amine-coupled to a CM5 chip; peptides in PBS injected at 60 μl/min, 180 s injection, 540 s dissociation; 1:1 binding model
T3 construct: TGF-β receptor 2, recombinant, 43.4 kDa; also called TβR2; type 2 TGF-β receptor; source: bought: Sino Biological Inc. (>95% as determined by SDS-PAGE)
T3 sequence (P37173 23-166): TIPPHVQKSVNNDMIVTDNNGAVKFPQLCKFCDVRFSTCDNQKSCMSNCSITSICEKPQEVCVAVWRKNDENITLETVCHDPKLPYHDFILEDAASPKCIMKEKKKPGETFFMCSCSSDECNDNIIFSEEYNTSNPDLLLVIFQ

T2 sequence (P37173 23-166): as above
T1 sequence (P37173 23-166): as above

binding result [1]: binds
B1: FITC-labeled KP1 (peptide, UniProt Q9UEF7 57-86, looked up)
peptide: FQGTFPDGFLWAVGSAAYQTEGGWQQHGKG
modifications: also: FITC label, position not given here
notes: Klotho, human; peptide of 30 amino acids from Phe57 to Gly86; also called FITC-KP1; source: synthetic peptide, labeled with fluorescein isothiocyanate (FITC)

koff [2]: 0.000578 s⁻¹
B2: Klotho-derived peptide 1 (peptide, UniProt Q9UEF7 57-86, looked up)
peptide: B1 peptide
notes: Klotho, human, 30 amino acids from Phe57 to Gly86; 3.229 kDa; also called KP1; source: synthetic peptide (GenScript, >95% purity)

Kd [3]: 1410 nM
koff [3]: 0.00058 s⁻¹
kon [3]: 408 M⁻¹ s⁻¹
B3: Klotho-derived peptide 1 (KP1) (peptide, UniProt Q9UEF7 57-86, looked up)
peptide: B1 peptide
notes: Klotho, human; peptide of 30 amino acids from Phe57 to Gly86; 3.229 kDa; the results give Phe57 to Gly86; source: synthetic peptide (GenScript, >95% purity)
